According to patent publication US10131702B2, “Glucagon-GLP-1-GIP triple agonist compounds” (priority 2013, dated 2018):
Like-named read-outs stand apart in the source and are kept apart here.

T1: human GIP receptor (human, UniProt P48546 22-466)
T1 sequence: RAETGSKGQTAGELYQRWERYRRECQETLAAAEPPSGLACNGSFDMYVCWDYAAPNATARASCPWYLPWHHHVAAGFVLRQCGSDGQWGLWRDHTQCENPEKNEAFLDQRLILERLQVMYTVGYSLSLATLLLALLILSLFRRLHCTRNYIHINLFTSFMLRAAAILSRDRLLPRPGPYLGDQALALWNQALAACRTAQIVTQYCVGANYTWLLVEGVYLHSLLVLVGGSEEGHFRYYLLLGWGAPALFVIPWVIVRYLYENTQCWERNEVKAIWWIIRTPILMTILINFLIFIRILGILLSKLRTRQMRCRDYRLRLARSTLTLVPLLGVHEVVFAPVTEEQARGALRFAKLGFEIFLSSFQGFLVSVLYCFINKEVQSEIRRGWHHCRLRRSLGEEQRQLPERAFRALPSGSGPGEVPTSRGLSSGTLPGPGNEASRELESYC


What was measured:
Assay in all cases: cell-based or functional assay
human glucagon receptor [1] = target: T2, human glucagon receptor (human, UniProt P47871 26-477)
T2 sequence (P47871 26-477): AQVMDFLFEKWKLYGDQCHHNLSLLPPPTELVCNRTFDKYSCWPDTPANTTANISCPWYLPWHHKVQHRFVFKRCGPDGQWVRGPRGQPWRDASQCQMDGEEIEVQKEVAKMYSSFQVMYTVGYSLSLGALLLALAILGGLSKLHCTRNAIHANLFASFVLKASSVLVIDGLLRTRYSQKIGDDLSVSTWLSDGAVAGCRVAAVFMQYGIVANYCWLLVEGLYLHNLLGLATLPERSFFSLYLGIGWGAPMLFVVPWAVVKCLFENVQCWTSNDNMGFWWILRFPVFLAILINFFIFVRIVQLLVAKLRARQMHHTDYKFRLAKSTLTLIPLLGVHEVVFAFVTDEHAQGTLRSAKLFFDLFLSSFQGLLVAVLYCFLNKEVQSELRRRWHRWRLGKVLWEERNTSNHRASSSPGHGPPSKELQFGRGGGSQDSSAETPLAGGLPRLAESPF

[2] = target: T3, human glucagon-like peptide 1 receptor (human, UniProt P43220 24-463)
human GIP receptor [3] = target: T1, human GIP receptor
human glucagon receptor [4] = target: T2, human glucagon receptor; remark: listed apart in the source
[5] = target: T3, human glucagon-like peptide 1 receptor; remark: listed apart in the source
human GIP receptor [6] = target: T1, human GIP receptor; remark: listed apart in the source

Row | Binder | EC50 (cAMP induction) (human glucagon receptor [1]) | EC50 (cAMP induction) [2] | EC50 (cAMP induction) (human GIP receptor [3]) | EC50 (cAMP induction) (human glucagon receptor [4]) | EC50 (cAMP induction) [5] | EC50 (cAMP induction) (human GIP receptor [6])
1 | YAQGTFTSDYSIYLDSKAAHDFVEWLLRA (HELM PEPTIDE1{Y.[Aib].Q.G.T.F.T.S.D.Y.S.I.Y.L.D.S.K.A.A.H.D.F.V.E.W.L.L.R.A.[am]}$$$$V2.0; SMILES CC[C@H](C)[C@H](NC(=O)[C@H](CO)NC(=O)[C@H](Cc1ccc(O)cc1)NC(=O)[C@H](CC(=O)O)NC(=O)[C@H](CO)NC(=O)[C@@H](NC(=O)[C@H](Cc1ccccc1)NC(=O)[C@@H](NC(=O)CNC(=O)[C@H](CCC(N)=O)NC(=O)C(C)(C)NC(=O)[C@@H](N)Cc1ccc(O)cc1)[C@@H](C)O)[C@@H](C)O)C(=O)N[C@@H](Cc1ccc(O)cc1)C(=O)N[C@@H](CC(C)C)C(=O)N[C@@H](CC(=O)O)C(=O)N[C@@H](CO)C(=O)N[C@@H](CCCCN)C(=O)N[C@@H](C)C(=O)N[C@@H](C)C(=O)N[C@@H](Cc1c[nH]cn1)C(=O)N[C@@H](CC(=O)O)C(=O)N[C@@H](Cc1ccccc1)C(=O)N[C@H](C(=O)N[C@@H](CCC(=O)O)C(=O)N[C@@H](Cc1c[nH]c2ccccc12)C(=O)N[C@@H](CC(C)C)C(=O)N[C@@H](CC(C)C)C(=O)N[C@@H](CCCNC(=N)N)C(=O)N[C@@H](C)C(N)=O)C(C)C) [Compound 12] | 0.076 nM | 0.012 nM | 0.084 nM | 0.076 nM | 0.076 nM | 0.012 nM
2 | YAQGTFTSDYSIYLDSKAAHDFVEWLLSAGPSSGAPPPS (HELM PEPTIDE1{Y.[Aib].Q.G.T.F.T.S.D.Y.S.I.Y.L.D.S.K.A.A.H.D.F.V.E.W.L.L.S.A.G.P.S.S.G.A.P.P.P.S.[am]}$$$$V2.0; SMILES CC[C@H](C)[C@H](NC(=O)[C@H](CO)NC(=O)[C@H](Cc1ccc(O)cc1)NC(=O)[C@H](CC(=O)O)NC(=O)[C@H](CO)NC(=O)[C@@H](NC(=O)[C@H](Cc1ccccc1)NC(=O)[C@@H](NC(=O)CNC(=O)[C@H](CCC(N)=O)NC(=O)C(C)(C)NC(=O)[C@@H](N)Cc1ccc(O)cc1)[C@@H](C)O)[C@@H](C)O)C(=O)N[C@@H](Cc1ccc(O)cc1)C(=O)N[C@@H](CC(C)C)C(=O)N[C@@H](CC(=O)O)C(=O)N[C@@H](CO)C(=O)N[C@@H](CCCCN)C(=O)N[C@@H](C)C(=O)N[C@@H](C)C(=O)N[C@@H](Cc1c[nH]cn1)C(=O)N[C@@H](CC(=O)O)C(=O)N[C@@H](Cc1ccccc1)C(=O)N[C@H](C(=O)N[C@@H](CCC(=O)O)C(=O)N[C@@H](Cc1c[nH]c2ccccc12)C(=O)N[C@@H](CC(C)C)C(=O)N[C@@H](CC(C)C)C(=O)N[C@@H](CO)C(=O)N[C@@H](C)C(=O)NCC(=O)N1CCC[C@H]1C(=O)N[C@@H](CO)C(=O)N[C@@H](CO)C(=O)NCC(=O)N[C@@H](C)C(=O)N1CCC[C@H]1C(=O)N1CCC[C@H]1C(=O)N1CCC[C@H]1C(=O)N[C@@H](CO)C(N)=O)C(C)C) [Compound 13] | 0.24 nM | 0.0099 nM | 0.083 nM | 0.24 nM | 0.24 nM | 0.01 nM
3 | YAQGTFTSDYSIYLEKKAAHDFVEWLLSA (HELM PEPTIDE1{Y.[Aib].Q.G.T.F.T.S.D.Y.S.I.Y.L.E.K.K.A.A.H.D.F.V.E.W.L.L.S.A.[am]}$$$$V2.0; SMILES CC[C@H](C)[C@H](NC(=O)[C@H](CO)NC(=O)[C@H](Cc1ccc(O)cc1)NC(=O)[C@H](CC(=O)O)NC(=O)[C@H](CO)NC(=O)[C@@H](NC(=O)[C@H](Cc1ccccc1)NC(=O)[C@@H](NC(=O)CNC(=O)[C@H](CCC(N)=O)NC(=O)C(C)(C)NC(=O)[C@@H](N)Cc1ccc(O)cc1)[C@@H](C)O)[C@@H](C)O)C(=O)N[C@@H](Cc1ccc(O)cc1)C(=O)N[C@@H](CC(C)C)C(=O)N[C@@H](CCC(=O)O)C(=O)N[C@@H](CCCCN)C(=O)N[C@@H](CCCCN)C(=O)N[C@@H](C)C(=O)N[C@@H](C)C(=O)N[C@@H](Cc1c[nH]cn1)C(=O)N[C@@H](CC(=O)O)C(=O)N[C@@H](Cc1ccccc1)C(=O)N[C@H](C(=O)N[C@@H](CCC(=O)O)C(=O)N[C@@H](Cc1c[nH]c2ccccc12)C(=O)N[C@@H](CC(C)C)C(=O)N[C@@H](CC(C)C)C(=O)N[C@@H](CO)C(=O)N[C@@H](C)C(N)=O)C(C)C) [Compound 14] | 0.1 nM | 0.013 nM | 0.06 nM | 0.1 nM | 0.1 nM | 0.013 nM
4 | YAQGTFTSDYSIYLDEKAAKDFVEWLLSA (HELM PEPTIDE1{Y.[Aib].Q.G.T.F.T.S.D.Y.S.I.Y.L.D.E.K.A.A.K.D.F.V.E.W.L.L.S.A.[am]}$$$$V2.0; SMILES CC[C@H](C)[C@H](NC(=O)[C@H](CO)NC(=O)[C@H](Cc1ccc(O)cc1)NC(=O)[C@H](CC(=O)O)NC(=O)[C@H](CO)NC(=O)[C@@H](NC(=O)[C@H](Cc1ccccc1)NC(=O)[C@@H](NC(=O)CNC(=O)[C@H](CCC(N)=O)NC(=O)C(C)(C)NC(=O)[C@@H](N)Cc1ccc(O)cc1)[C@@H](C)O)[C@@H](C)O)C(=O)N[C@@H](Cc1ccc(O)cc1)C(=O)N[C@@H](CC(C)C)C(=O)N[C@@H](CC(=O)O)C(=O)N[C@@H](CCC(=O)O)C(=O)N[C@@H](CCCCN)C(=O)N[C@@H](C)C(=O)N[C@@H](C)C(=O)N[C@@H](CCCCN)C(=O)N[C@@H](CC(=O)O)C(=O)N[C@@H](Cc1ccccc1)C(=O)N[C@H](C(=O)N[C@@H](CCC(=O)O)C(=O)N[C@@H](Cc1c[nH]c2ccccc12)C(=O)N[C@@H](CC(C)C)C(=O)N[C@@H](CC(C)C)C(=O)N[C@@H](CO)C(=O)N[C@@H](C)C(N)=O)C(C)C) [Compound 17] | 0.16 nM | 0.011 nM | 0.091 nM | 0.16 nM | 0.16 nM | 0.013 nM
5 | YAQGTFTSDYSIYLESKAAHDFVEWLLSA (HELM PEPTIDE1{Y.[Aib].Q.G.T.F.T.S.D.Y.S.I.Y.L.E.S.K.A.A.H.D.F.V.E.W.L.L.S.A.[am]}$$$$V2.0; SMILES CC[C@H](C)[C@H](NC(=O)[C@H](CO)NC(=O)[C@H](Cc1ccc(O)cc1)NC(=O)[C@H](CC(=O)O)NC(=O)[C@H](CO)NC(=O)[C@@H](NC(=O)[C@H](Cc1ccccc1)NC(=O)[C@@H](NC(=O)CNC(=O)[C@H](CCC(N)=O)NC(=O)C(C)(C)NC(=O)[C@@H](N)Cc1ccc(O)cc1)[C@@H](C)O)[C@@H](C)O)C(=O)N[C@@H](Cc1ccc(O)cc1)C(=O)N[C@@H](CC(C)C)C(=O)N[C@@H](CCC(=O)O)C(=O)N[C@@H](CO)C(=O)N[C@@H](CCCCN)C(=O)N[C@@H](C)C(=O)N[C@@H](C)C(=O)N[C@@H](Cc1c[nH]cn1)C(=O)N[C@@H](CC(=O)O)C(=O)N[C@@H](Cc1ccccc1)C(=O)N[C@H](C(=O)N[C@@H](CCC(=O)O)C(=O)N[C@@H](Cc1c[nH]c2ccccc12)C(=O)N[C@@H](CC(C)C)C(=O)N[C@@H](CC(C)C)C(=O)N[C@@H](CO)C(=O)N[C@@H](C)C(N)=O)C(C)C) [Compound 18] | 0.15 nM | 0.021 nM | 0.07 nM | 0.15 nM | 0.15 nM | 0.021 nM
6 | YAQGTFTSDYSIYLDKKAAHDFVEWLLSA (HELM PEPTIDE1{Y.[Aib].Q.G.T.F.T.S.D.Y.S.I.Y.L.D.K.K.A.A.H.D.F.V.E.W.L.L.S.A.[am]}$$$$V2.0; SMILES CC[C@H](C)[C@H](NC(=O)[C@H](CO)NC(=O)[C@H](Cc1ccc(O)cc1)NC(=O)[C@H](CC(=O)O)NC(=O)[C@H](CO)NC(=O)[C@@H](NC(=O)[C@H](Cc1ccccc1)NC(=O)[C@@H](NC(=O)CNC(=O)[C@H](CCC(N)=O)NC(=O)C(C)(C)NC(=O)[C@@H](N)Cc1ccc(O)cc1)[C@@H](C)O)[C@@H](C)O)C(=O)N[C@@H](Cc1ccc(O)cc1)C(=O)N[C@@H](CC(C)C)C(=O)N[C@@H](CC(=O)O)C(=O)N[C@@H](CCCCN)C(=O)N[C@@H](CCCCN)C(=O)N[C@@H](C)C(=O)N[C@@H](C)C(=O)N[C@@H](Cc1c[nH]cn1)C(=O)N[C@@H](CC(=O)O)C(=O)N[C@@H](Cc1ccccc1)C(=O)N[C@H](C(=O)N[C@@H](CCC(=O)O)C(=O)N[C@@H](Cc1c[nH]c2ccccc12)C(=O)N[C@@H](CC(C)C)C(=O)N[C@@H](CC(C)C)C(=O)N[C@@H](CO)C(=O)N[C@@H](C)C(N)=O)C(C)C) [Compound 19] | 0.024 nM | 0.013 nM | 0.032 nM | 0.024 nM | 0.024 nM | 0.013 nM
